Assay results published in patent US20240392003A1 (NUMAB THERAPEUTICS, published 2024).
Where two headings read alike, the source gives them in different places.

Columns and labels:
[1] = molecular target: T1, recombinant human CD3 epsilon extra-cellular domain protein (His-Tag, SinoBiological) (human, UniProt P07766 23-126); test: SPR; hCD3ε immobilized, two-state fit (Ka1)
T1 construct: extracellular domain; Bought; also called hCD3ε; human CD3ε; not shown: His tag

[2] = molecular target: T2, human ROR1 (Peprotech 160-054) (human, UniProt Q01973 30-406); test: SPR; MATCH4 captured, hROR1 analyte (Affinity)
T2 construct: Bought, used as analyte; also called hROR1; recombinant human ROR1 protein

[3] = molecular target: T3, human serum albumin (Sigma-Aldrich A3782) (human, UniProt P02768 25-609); test: SPR; hSA immobilized, pH 5.5
T3 construct: also called hSA; HSA

[4] = molecular target: T1, recombinant human CD3 epsilon …; test: SPR; hCD3ε immobilized, two-state fit (kd1)
[5] = molecular target: T1, recombinant human CD3 epsilon …; test: SPR; hCD3ε immobilized, two-state fit
[6] = molecular target: T4, recombinant human ROR1 protein (Fc-Tag, Acro Biosystems RO1-H5250) (human, UniProt Q01973 30-406); test: SPR; hROR1-Fc immobilized (Avidity)
T4 construct: Bought; also called hROR1; recombinant human ROR1 ECD; not shown: Fc tag

[7] = molecular target: T5, human ROR1 expressed on cells (human, UniProt Q01973 30-937); test: flow cytometry, MDA-MB-231 cells, 1 mg/ml hSA
T5 construct: whole, on cells; One molecule for cell-surface ROR1 on all cell lines; the cell line is named under assay; also called hROR1; plasma membrane human ROR1

[8] = molecular target: T5, human ROR1 expressed on cells; test: flow cytometry, MDA-MB-231 cells, 1 mg/ml hSA; remark: listed apart in the source
[9] = molecular target: T1, recombinant human CD3 epsilon …; test: SPR; hCD3ε immobilized, two-state fit; remark: listed apart in the source
[10] = molecular target: T4, recombinant human ROR1 protein (Fc-Tag, …); test: SPR; hROR1-Fc immobilized;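 further: biacore T200 SPR with ROR1 covalently coupled to a CM5 chip, analyte titration series, apparent rate and equilibrium constants fitted with a 1:1 Langmuir model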
[11] = molecular target: T1, recombinant human CD3 epsilon …; test: SPR; hCD3ε immobilized, two-state fit (kd1); remark: listed apart in the source
[12] = molecular target: T1, recombinant human CD3 epsilon …; test: SPR; hCD3ε immobilized, two-state fit (ka1)
[13] = molecular target: T5, human ROR1 expressed on cells; test: flow cytometry, MDA-MB-231 cells, 1 mg/ml hSA; remark: listed apart in the source
[14] = molecular target: T3, human serum albumin (Sigma-Aldrich …); test: SPR; hSA immobilized, pH 5.5; remark: listed apart in the source

| fold lower EC50 binding than parental scFv PRO2062 [8] [fold] | Kd [9] [nM] | ka2 [9] [s⁻¹] | kd2 [9] [s⁻¹] | Kd [10] [nM] | koff [10] [s⁻¹] | kon [10] [M⁻¹ s⁻¹] | koff [11] [s⁻¹] | kon [12] [M⁻¹ s⁻¹] | EC50 [13] [nM] | Rel. maximum binding (MFIscMATCH3/MFIPRO2213) [13] | Binder | also measured |
| --- | --- | --- | --- | --- | --- | --- | --- | --- | --- | --- | --- | --- |
|  |  |  |  |  |  |  |  |  |  |  | PRO2670 (bispecific antibody, heterodimeric MATCH4, modified VH domains, optimized variant of PRO2590; also called MATCH4 with 55-38-D07-sc06(RTQ) / 19-04-A10-sc02(RTQ) diS / 28-21-D09-sc04(RTQ) / 55-38-D07-sc06(RTQ); RPO2670) chain 1: DVQMTQSPSSLSASVGDRVTITCRASENIYSGLAWYQQKPGKPPKLLIYRASTLASGVSSRFSGSGSGTDFTLTISSLQPEDFATYYCQGGYYSSSSTYIAFGCGTKVTVLGGGGGSGGGGSGGGGSGGGGSQSQVVESGGGRVQPGGSLRLSCAVSGFDLSSYAVSWVRQAPGKCLEWIGIIYPRANTYYASWAKGRFTISKDNSKNTVYLQMNSLRAEDTATYFCARDRYDSGAYLYTTYFNLWGQGTQVTVSSGGGGSGGGGSAFELTQSPSSLSASVGDRVTITCQASESINSRLAWYQQKPGQPPKLLIYDASDLTSGVPSRFSGSGSGTDFTLTISSLQPEDFATYYCQGYGGSSTTTFGCGTKLTVLGGGSGGSDIQMTQSPSSLSASVGDRVTITCQSSQSVFSNNYLAWFQQKPGQSPKRLIYSASTLASGVPSRFSGSGSGTDFTLTISSLQPEDFATYYCLGSYACSSADCYVFGTGTKVTVLG chain 2: DVQMTQSPSSLSASVGDRVTITCRASENIYSGLAWYQQKPGKPPKLLIYRASTLASGVSSRFSGSGSGTDFTLTISSLQPEDFATYYCQGGYYSSSSTYIAFGCGTKVTVLGGGGGSGGGGSGGGGSGGGGSQSQVVESGGGRVQPGGSLRLSCAVSGFDLSSYAVSWVRQAPGKCLEWIGIIYPRANTYYASWAKGRFTISKDNSKNTVYLQMNSLRAEDTATYFCARDRYDSGAYLYTTYFNLWGQGTQVTVSSGGGGSGGGGSEVQLVESGGGRVQPGGSLRLSCAASGFSLSSYDMSWVRQAPGKGLAWIGASYASGPTYYASWAKGRFTISRDNSKNTVYLQMNSLRAEDTATYFCARGGWTGTSHSNIWGQGTQVTVSSGGGSGGGSGGGSGEVQLVESGGGRVQPGGSLRLSCAASGFSLSSYAMNWVRQAPGKCLEWIGHINAGDIAYYATWAKGRFTISRDNSKNTVYLQMNSLRAEDTATYFCARGAGGFSTGPFKLWGQGTQVTVSS | kon [1]: 820000 M⁻¹ s⁻¹; Kd [2]: 2.87 nM; koff [2]: 0.000132 s⁻¹; kon [2]: 46000 M⁻¹ s⁻¹; Kd [3]: 3.5 nM; koff [3]: 0.0013 s⁻¹; kon [3]: 370000 M⁻¹ s⁻¹; koff [4]: 0.0048 s⁻¹; Ka2 [5]: 0.0054 s⁻¹; Kd [5]: 2.7 nM; Kd2 [5]: 0.0047 s⁻¹; Kd [6]: 0.11 nM; koff [6]: 8.1e-05 s⁻¹; kon [6]: 760000 M⁻¹ s⁻¹; EC50 [7]: 0.85 nM; Rel. maximum binding (MFIMATCH4/MFIPRO2213) [7]: 2.68; rel. EC50 (EC50, PRO2213/EC50, MATCH4) [7]: 0.39 |
| ~5 | 2.1 | 0.0017 | 0.002 | 0.32 | 0.0004 | 1.3e+06 | 0.0034 | 870000 | 1.83 | 1.98 | PRO2287 (bispecific antibody, trispecific anti-ROR1 x hSA x CD3 scMATCH3, single chain; also called 19-01-H04-sc02/3 diS scDb-o/28-21-D09-sc04 scDb-i/55-39-G02-sc02 scFv) DIQMTQSPSSLSASVGDRVTITCQSSESVYSNNQLSWYQQKPGQPPKLLIYDASDLASGVPSRFSGSGSGTDFTLTISSLQPEDFATYYCAGGFSSSSDTAFGCGTKLTVLGGGGGSEVQLVESGGGLVQPGGSLRLSCAASGFSLSSYDMSWVRQAPGKGLAWIGASYASGPTYYASWAKGRFTISRDNSKNTVYLQMNSLRAEDTATYFCARGGWTGTSHSNIWGQGTLVTVSSGGGGSGGGGSGGGGSGGGGSDIQMTQSPSSLSASVGDRVTITCQSSQSVFSNNYLAWFQQKPGQSPKRLIYSASTLASGVPSRFSGSGSGTDFTLTISSLQPEDFATYYCLGSYACSSADCYVFGTGTKVTVLGGGGGSEVQLVESGGGLVQPGGSLRLSCAASGFSLSSNAMGWVRQAPGKCLEYIGIISVGGFTYYASWAKGRFTISRDNSKNTVYLQMNSLRAEDTATYFCARDRHGGDSSGAFYLWGQGTLVTVSSGGGGSGGGGSAQQLTQSPSSLSASVGDRVTITCQASQNVWNNNYLSWFQQKPGKPPKLLIVTASTLASGVSSRFSGSGSGTDFTLTISSLQPEDFATYYCAGGFSGEIRAFGTGTKVTVLGGGGGSGGGGSGGGGSGGGGSQSQLVESGGGLVQPGGSLRLSCAVSGLSLSRNAMSWVRQAPGKGLEWIGIILTSGSTYYASWAKGRFTISKDNSKNTVYLQMNSLRAEDTAVYFCVRGIASSSLKSFWGQGTLVTVSS |  |
|  |  |  |  |  |  |  |  |  |  |  | PRO2658 (bispecific antibody, heterodimeric MATCH4) chain 1: AQQLTQSPSSLSASVGDRVTITCQASQNVWNNNYLSWFQQKPGKPPKLLIVTASTLASGVSSRFSGSGSGTDFTLTISSLQPEDFATYYCAGGFSGEIRAFGTGTKVTVLGGGGGSGGGGSGGGGSGGGGSQSQLVESGGGLVQPGGSLRLSCAVSGLSLSRNAMSWVRQAPGKGLEWIGIILTSGSTYYASWAKGRFTISKDNSKNTVYLQMNSLRAEDTAVYFCVRGIASSSLKSFWGQGTLVTVSSGGGGSGGGGSAFELTQSPSSLSASVGDRVTITCQASESINSRLAWYQQKPGQPPKLLIYDASDLTSGVPSRFSGSGSGTDFTLTISSLQPEDFATYYCQGYGGSSTTTFGCGTKLTVLGGGSGGSDIQMTQSPSSLSASVGDRVTITCQSSQSVFSNNYLAWFQQKPGQSPKRLIYSASTLASGVPSRFSGSGSGTDFTLTISSLQPEDFATYYCLGSYACSSADCYVFGTGTKVTVLG chain 2: AQQLTQSPSSLSASVGDRVTITCQASQNVWNNNYLSWFQQKPGKPPKLLIVTASTLASGVSSRFSGSGSGTDFTLTISSLQPEDFATYYCAGGFSGEIRAFGTGTKVTVLGGGGGSGGGGSGGGGSGGGGSQSQLVESGGGLVQPGGSLRLSCAVSGLSLSRNAMSWVRQAPGKGLEWIGIILTSGSTYYASWAKGRFTISKDNSKNTVYLQMNSLRAEDTAVYFCVRGIASSSLKSFWGQGTLVTVSSGGGGSGGGGSEVQLVESGGGLVQPGGSLRLSCAASGFSLSSYDMSWVRQAPGKGLAWIGASYASGPTYYASWAKGRFTISRDNSKNTVYLQMNSLRAEDTATYFCARGGWTGTSHSNIWGQGTLVTVSSGGGSGGGSGGGSGEVQLVESGGGLVQPGGSLRLSCAASGFSLSSYAMNWVRQAPGKCLEWIGHINAGDIAYYATWAKGRFTISRDNSKNTVYLQMNSLRAEDTAVYFCARGAGGFSTGPFKLWGQGTLVTVSS | binding result [8]: binds |
| ~5 | 1.5 | 0.00069 | 0.0011 | 0.33 | 0.00045 | 1.4e+06 | 0.0027 | 1.1e+06 | 1.33 | 1.87 | PRO2286 (bispecific antibody, trispecific anti-ROR1 x hSA x CD3 scMATCH3, single chain; also called 23-13-A01-sc02 diS scDb-o/28-21-D09-sc04 scDb-i/55-39-G02-sc02-scFv) DVVMTQSPSSLSASVGDRVTITCQASQIISSRSAWYQQKPGQPPKLLIYQASKLASGVPSRFSGSGSGTDFTLTISSLQPEDFATYYCQCTYIDSNFGAFGCGTKLTVLGGGGGSEVQLVESGGGLVQPGGSLRLSCAASGFSLSSYDMSWVRQAPGKGLAWIGASYASGPTYYASWAKGRFTISRDNSKNTVYLQMNSLRAEDTATYFCARGGWTGTSHSNIWGQGTLVTVSSGGGGSGGGGSGGGGSGGGGSDIQMTQSPSSLSASVGDRVTITCQSSQSVFSNNYLAWFQQKPGQSPKRLIYSASTLASGVPSRFSGSGSGTDFTLTISSLQPEDFATYYCLGSYACSSADCYVFGTGTKVTVLGGGGGSEVQLVESGGGLVQPGGSLRLSCAASGFSFSSSYWICWVRQAPGKCLEWVGCVFTGDGTTYYASWAKGRFTISRDNSKNTVYLQMNSLRAEDTATYFCARPVSVYYYGMDLWGQGTLVTVSSGGGGSGGGGSAQQLTQSPSSLSASVGDRVTITCQASQNVWNNNYLSWFQQKPGKPPKLLIVTASTLASGVSSRFSGSGSGTDFTLTISSLQPEDFATYYCAGGFSGEIRAFGTGTKVTVLGGGGGSGGGGSGGGGSGGGGSQSQLVESGGGLVQPGGSLRLSCAVSGLSLSRNAMSWVRQAPGKGLEWIGIILTSGSTYYASWAKGRFTISKDNSKNTVYLQMNSLRAEDTAVYFCVRGIASSSLKSFWGQGTLVTVSS | Kd [14]: 0.062 nM; koff [14]: 6.7e-05 s⁻¹; kon [14]: 1.1e+06 M⁻¹ s⁻¹ |
